Experimental findings from patent US20190030139A1 (MAYO FOUNDATION FOR MEDICAL EDUCATION AND RESEARCH, published 2019) are described below.

B5: LKB1 (enzyme, UniProt Q15831 1-430, looked up)
chain: MEVVDPQQLGMFTEGELMSVGMDTFIHRIDSTEVIYQPRRKRAKLIGKYLMGDLLGEGSYGKVKEVLDSETLCRRAVKILKKKKLRRIPNGEANVKKEIQLLRRLRHKNVIQLVDVLYNEEKQKMYMVMEYCVCGMQEMLDSVPEKRFPVCQAHGYFCQLIDGLEYLHSQGIVHKDIKPGNLLLTTGGTLKISDLGVAEALHPFAADDTCRTSQGSPAFQPPEIANGLDTFSGFKVDIWSAGVTLYNITTGLYPFEGDNIYKLFENIGKGSYAIPGDCGPPLSDLLKGMLEYEPAKRFSIRQIRQHSWFRKKHPPAEAPVPIPPSPDTKDRWRSMTVVPYLEDLHGADEDEDLFDIEDDIIYTQDFTVPGQVPEEEASHNGQRRGLPKAVCMNGTEAAQLSTKSRAEGRAPNPARKACSASSKIRRLSAC
notes: Cellular protein co-precipitated with FLAG-tagged AMPKα

Assay [1] has as its target B5. Put plainly: FLAG-bead immunoprecipitation from HCT116 lysates, LKB1 immunoblot (FIG. 5G). On the technique in general: A western blot detects proteins with antibodies after separation by electrophoresis.
The target of a further assay is T1, Purified His6-USP10 (human, UniProt Q14694 1-798).
T1 construct: also called His-USP10; recombinant USP10; not shown: His6 tag
In words: GST pull-down with recombinant proteins (FIG. 3A). Here is the method:
Purified His6-USP10 was incubated with the indicated GST tagged AMPK subunits coupled to GSH-Sepharose. Proteins retained on Sepharose were then blotted with the indicated antibodies. FIGS. 3B-3D are immunoblots showing the interaction of USP10 with AMPKα in cells. HCT116 cell lysates were subjected to immunoprecipitation (IP) with control IgG, anti-USP10 (FIG. 3B), anti-AMPKα1 (FIG. 3C), anti-AMPKα2 (FIG. 3D) antibodies. The immunoprecipitates were then blotted with the indicated antibodies. […] 293T cells transfected with the indicated constructs were lysed, and lysates were incubated with anti-FLAG beads. Proteins retained on beads were blotted with the indicated antibodies. […] HCT116 cells infected with lentivirus encoding the indicated shRNAs were transfected with the indicated constructs. Cell lysates and Ni-NTA pulldowns were immunoblotted as indicated. -Glu, glucose starvation. FIG. 3G is a picture of an immunoblot showing that USP10 deubiquitinase activity is required for AMPK deubiquitination. The indicated constructs were transfected into USP10 knockdown cell lines, and cells were placed in medium without glucose for 4 hours. Cell lysates were incubated with anti-HA beads and immunoblotted with the indicated antibodies. -Glu, glucose starvation. FIG. 3H is a picture of an immunoblot showing deubiquitination of AMPKα2 in vitro by USP10. Ubiquitinated AMPKα2 was incubated with purified USP10 or USP10CA in vitro, and then blotted with indicated antibodies.
Immunoprecipitation, immunoblotting, and in vitro pull-down assay—Cell lysates were prepared and immunoprecipitation and immunoblotting were performed as described elsewhere (Yuan et al., supra). In brief, cells were lysed with NETN buffer (20 mM Tris-HCl, pH 8.0, 100 mM NaCl, 1 mM EDTA, 0.5% Nonidet P-40) containing 50 mM β-glycerophosphate, 10 mM NaF, and 1 mg/ml each of pepstatin A and aprotinin.

The target in assay [2] is B5. Put plainly: FLAG-bead immunoprecipitation from HCT116 lysates, LKB1 immunoblot (FIG. 6F).
For assay [3], the target named is T2, WT AMPKα1 (FLAG-tagged, expressed in HCT116 cells) (human, UniProt Q13131 1-559).
T2 construct: Precipitated from cell lysates with FLAG beads; ubiquitinated in part in cells; also called FLAG-AMPKα; not shown: FLAG tag
The assay is described as above.

The target in assay [4] is T3, WT AMPKα2 (FLAG-tagged, expressed in HCT116 cells) (human, UniProt P54646 1-552).
T3 construct: Precipitated from cell lysates with FLAG beads; ubiquitinated in part in cells; also called FLAG-AMPKα; not shown: FLAG tag
In words: FLAG-bead immunoprecipitation from HCT116 lysates, LKB1 immunoblot (FIG. 5G).

T1 sequence (Q14694 whole entry): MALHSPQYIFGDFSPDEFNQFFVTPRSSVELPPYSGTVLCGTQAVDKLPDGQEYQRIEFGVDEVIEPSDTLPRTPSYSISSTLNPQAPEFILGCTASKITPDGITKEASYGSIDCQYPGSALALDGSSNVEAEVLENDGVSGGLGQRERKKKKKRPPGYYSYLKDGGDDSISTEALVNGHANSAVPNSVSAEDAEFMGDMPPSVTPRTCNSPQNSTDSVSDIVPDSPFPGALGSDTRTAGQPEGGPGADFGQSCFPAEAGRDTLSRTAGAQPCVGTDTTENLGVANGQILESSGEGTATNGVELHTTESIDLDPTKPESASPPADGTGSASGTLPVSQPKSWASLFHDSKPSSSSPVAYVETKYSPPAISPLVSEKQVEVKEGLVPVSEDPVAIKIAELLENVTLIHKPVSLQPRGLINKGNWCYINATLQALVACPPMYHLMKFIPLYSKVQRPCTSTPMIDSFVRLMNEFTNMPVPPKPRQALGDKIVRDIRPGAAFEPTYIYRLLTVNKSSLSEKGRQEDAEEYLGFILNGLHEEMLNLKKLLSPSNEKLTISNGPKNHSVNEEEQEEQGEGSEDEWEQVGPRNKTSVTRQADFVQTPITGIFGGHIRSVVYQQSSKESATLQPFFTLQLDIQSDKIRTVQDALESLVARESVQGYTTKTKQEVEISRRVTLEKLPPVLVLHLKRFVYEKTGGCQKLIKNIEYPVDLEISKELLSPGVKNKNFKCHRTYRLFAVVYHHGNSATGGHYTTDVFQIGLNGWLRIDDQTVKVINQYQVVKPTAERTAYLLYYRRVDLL

B1: AMPKα2 4KR mutant (FLAG-tagged, expressed in HCT116 cells) (enzyme)
chain: MAEKQKHDGRVKIGHYVLGDTLGVGTFGKVKIGEHQLTGHKVAVKILNRQKIRSLDVVGRIKREIQNLKLFRHPHIIKLYQVISTPTDFFMVMEYVSGGELFDYICKHGRVEEMEARRLFQQILSAVDYCHRHMVVHRDLKPENVLLDAHMNAKIADFGLSNMMSDGEFLRTSCGSPNYAAPEVISGRLYAGPEVDIWSCGVILYALLCGTLPFDDEHVPTLFKKIRGGVFYIPEYLNRSVATLLMHMLQVDPLKRATIKDIREHEWFKQDLPSYLFPEDPSYDANVIDDEAVKEVCEKFECTESEVMNSLYSGDPQDQLAVAYHLIIDNRRIMNQASEFYLASSPPSGSFMDDSAMHIPPGLKPHPERMPPLIADSPRARCPLDALNTTRPKSLAVKKAKWHLGIRSQSKPYDIMAEVYRAMKQLDFEWKVVNAYHLRVRRKNPVTGNYVKMSLQLYLVDNRSYLLDFRSIDDEVVEQRSGSSTPQRSCSAAGLHRPRSSFDSTTAESHSLSGSLTGSLTGSTLSSVSPRLGSHTMDFFEMCASLITTLAR
notes: also called quadruple K to R mutant (4KR); AMPKα 4KR mutant; not shown: FLAG tag
As to B1, the binding result in the assay with LKB1 [1] is “binds”.

B2: GST tagged AMPK β2 (other, UniProt O43741 1-272, looked up)
chain: MGNTTSDRVSGERHGAKAARSEGAGGHAPGKEHKIMVGSTDDPSVFSLPDSKLPGDKEFVSWQQDLEDSVKPTQQARPTVIRWSEGGKEVFISGSFNNWSTKIPLIKSHNDFVAILDLPEGEHQYKFFVDGQWVHDPSEPVVTSQLGTINNLIHVKKSDFEVFDALKLDSMESSETSCRDLSSSPPGPYGQEMYAFRSEERFKSPPILPPHLLQVILNKDTNISCDPALLPEPNHVMLNHLYALSIKDSVMVLSATHRYKKKYVTTLLYKPI
notes: not shown: glutathione S-transferase tag of vector pGEX-4T-1
Take B2: the binding result with Purified His6-USP10 is recorded as “no binding”.

B3: GST tagged AMPK β1 (other, UniProt Q9Y478 1-270, looked up)
chain: MGNTSSERAALERHGGHKTPRRDSSGGTKDGDRPKILMDSPEDADLFHSEEIKAPEKEEFLAWQHDLEVNDKAPAQARPTVFRWTGGGKEVYLSGSFNNWSKLPLTRSHNNFVAILDLPEGEHQYKFFVDGQWTHDPSEPIVTSQLGTVNNIIQVKKTDFEVFDALMVDSQKCSDVSELSSSPPGPYHQEPYVCKPEERFRAPPILPPHLLQVILNKDTGISCDPALLPEPNHVMLNHLYALSIKDGVMVLSATHRYKKKYVTTLLYKPI
notes: as for B2
On to B3, for which the binding result with Purified His6-USP10 is reported as “no binding”.

B4: AMPKα1 4KR mutant (FLAG-tagged, expressed in HCT116 cells) (enzyme)
chain: MRRLSSWRKMATAEKQKHDGRVKIGHYILGDTLGVGTFGKVKVGKHELTGHKVAVKILNRQKIRSLDVVGRIRREIQNLKLFRHPHIIKLYQVISTPSDIFMVMEYVSGGELFDYICKNGRLDEKESRRLFQQILSGVDYCHRHMVVHRDLKPENVLLDAHMNAKIADFGLSNMMSDGEFLRTSCGSPNYAAPEVISGRLYAGPEVDIWSSGVILYALLCGTLPFDDDHVPTLFKKICDGIFYTPQYLNPSVISLLKHMLQVDPMKRATIKDIREHEWFKQDLPRYLFPEDPSYSSTMIDDEALKEVCEKFECSEEEVLSCLYNRNHQDPLAVAYHLIIDNRRIMNEAKDFYLATSPPDSFLDDHHLTRPHPERVPFLVAETPRARHTLDELNPQRSKHQGVRKAKWHLGIRSQSRPNDIMAEVCRAIKQLDYEWKVVNPYYLRVRRKNPVTSTYSKMSLQLYQVDSRTYLLDFRSIDDEITEARSGTATPQRSGSVSNYRSCQRSDSDAEAQGKSSEVSLTSSVTSLDSSPVDLTPRPGSHTIEFFEMCANLIKILAQ
notes: also called 4KR AMPKα1; AMPKα 4KR mutant; not shown: FLAG tag
As to B4, the binding result with LKB1 [2] is listed as “binds”.

Regarding B5, the binding result in assay [3] and in assay [4] was “binds” in each case.

B6: GST tagged AMPK γ1 (other, UniProt P54619 1-331, looked up)
chain: METVISSDSSPAVENEHPQETPESNNSVYTSFMKSHRCYDLIPTSSKLVVFDTSLQVKKAFFALVTNGVRAAPLWDSKKQSFVGMLTITDFINILHRYYKSALVQIYELEEHKIETWREVYLQDSFKPLVCISPNASLFDAVSSLIRNKIHRLPVIDPESGNTLYILTHKRILKFLKLFITEFPKPEFMSKSLEELQIGTYANIAMVRTTTPVYVALGIFVQHRVSALPVVDEKGRVVDIYSKFDVINLAAEKTYNNLDVSVTKALQHRSHYFEGVLKCYLHETLETIINRLVEAEVHRLVVVDENDVVKGIVSLSDILQALVLTGGEKKP
notes: as for B2
Consider B6, for which the binding result in the assay with Purified His6-USP10 is on record as “no binding”.
